Measured values from the nanobody polyreactivity screen of Harvey et al. (2022).

Test: yeast display, Sf9 membrane polyspecificity reagent, FACS + sequencing; frameworks hold sequencing errors
Outline: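 A nanobody's polyreactivity label depends on the gate it was sorted from. Yeast display cells were stained with 10% biotinylated, detergent-solubilized Sf9 membrane reagent for 1 hour at 4 °C, enriched on streptavidin microbeads and sorted by FACS. The low and high (top ~1%) gates were set on anti-HA fluorescence for expression and streptavidin fluorescence for reagent binding.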

Sequence | polyreactivity (PSR sort gate)
QVQLVESGGGLVQAGGRLRLSCAASGITISGNAMGWYRQAPGKERELDAAISGRGGSTYYADSVKGRFTISRDNAKNTVYLQMNSLIPEDTAVFYCAARVPSPYVATYYYWGQGSQVTVSS | high polyreactivity
QVQLVESGGGLVQAGGSLRLSCAASGHIFGRYAMGWYRQAPGKERELVAAITSGGRTNYADSVKGRFTISRDNAKNTVYLQMNSLKPEDTAVYYCAAYSWYFGSRYDYWGQGTQVTVSS | low polyreactivity
QVQLVESGGGLVQAGGSLRLSCAASGRIFDIYTMGWYRQAPGNERELVASITKRGGSTYYADSVKGRFTISRDNAKNTVYLQMNSLKPEDTAVYYCNVAGKQKPYYVTTRLDYWGQGTQVTVSS | high polyreactivity
QVQLVESGGCLVQAGGSLRLSCAASGSTFPIYAMGWYRQAPGKERELVARITWNGGRTYYADSVKGRFTISRDNAKNTVYLQMNSLKPEDTAVYYCNARRYLRGYGYGYWGQGTQVTVSS | high polyreactivity
QVQLVESGGGLVQAGGSLRLSCAASGRTFYGYAMGWYRQAPGKERELVAAITRSGGSTYYADSVKGRFTISRDNAKNTVYLQMNSLKPEDTAVYYCAAGGQARHDNWGQGTQVTVSS | low polyreactivity
QVQLVESGGGLVQAGGSLRLSCAASGFTFYIYAMGWYRPAPRNERELLAAITGSGGRTYYADSVKGRFTISRDYAKNTVYLQMNRLKPEETAVYYSNVLLQRVYGTEPSFDYWGQGTQVTVSS | high polyreactivity
QVQLVESGGGLVQAGGSLRLSCAASGSIFITYAMGWYRQAPGKERELVAAIRDSGDRTYYADSVKGRFTISRDNAKNTVYLQMNRLKPEETAVYYCNARWQEPLKYDYWGQGTQVTVSS | low polyreactivity
QVQLVESRGVLVQAGGSLRLSCAASGRTFYFYVKGWYIQEPGKERELVARISYSDGSTYYADSVKGRFTISRDNAKNTVYLQMNSLKPEDTAVYYCNAYDPYFGRRYDYWGQGTQVTVSS | low polyreactivity
QFQLVESGGGLVQAGGSLRISCAATGLIYYVYAMGWYRQAPGKESELVAAIRSGGSTNNADSVKGRFTISRDNAKNTVYLQMNRLKPEDTAVYYCAVDTWYFLFQYGYYQEGDYWGQGTQVTVSS | low polyreactivity
QVQLVESGGGLVQAGGSLRLSCAPSGSTFIPNPMGWYRQAPGKERELVAAISRRGGSTNYADSVKGRFTISRDNAKNTVYLQMNSLKPEDTALYYCAAVSPRRYRYDYWGQGPQVTVSS | low polyreactivity
QVQLVESGGGLVQAGGSLRLRCAASGRTFAINALGWYRQAPGKEREDVASITTSGGRTYYADSVKGRFTISRDNAKNTVYLQMNSLKPEDTAVYYCNAGSYVGSWRFPYYYWGQGTQVTVSS | high polyreactivity
QVQLVESCGGLVQAGGSLRLSCAASGSIFYFNAMGWYREAPGKERELVAAINISGSSTSYADSVKGRFTISRDNAKNTVYLQMNSLKPEDTAVYYCAAEDEPRILIVRVWDYYWGQGTQVTVSS | low polyreactivity
QVQLVESGGGLVQAGGSLRLSCAASGITFPGNAMGWYRQAPGKERELVAGISDGDSTNYADSVKARFTISRDNAKNTVYLQMNSLKPEDTAVYYCARDTELYVRWLDYWGQGTQVTVSS | low polyreactivity
QVQLVESGGGLVQAGGSLRLSCAASGIIFSGYVMGWYRQAPGKERELVAAIRWNGGNTYYADSVKGRFTISRDNAKNTVYLQMNSLKPEDTAVYYCAGRVRRPYSSLDYWGQGSQVTVSS | high polyreactivity
QVQLVESGGGLVQARGSRRLTCAASGRTFSYYAMGWYLHEPGKERELVAAITSSGGRTTYADSVKGRFTISRDNAKNTVYLQMNSLKPEDTAVYYCNVVRWTLKYGYWGQGTQVTVSS | high polyreactivity
QVHLVESGGGLVQAGGSLRLSCAASGRIFGDNAMGWYRQAPGKERELVAAITVNAGSTHYADSVKGRFTISRDNAKNTDYLQMNSLKPEDTAVYYCAKQTAPVTGVGPYYYWGQGTQVTVSS | low polyreactivity
QVQIVESGGGLVQAGGSLRVSCAASGSIYTYNGMGWYRQAPWKERELDAAISASGGRTYYADSVKGRYTISRDNAKNTVYLQMNRLKPEDNAVYYCAARILVSGLSRFDYWGQGTQVTVSA | high polyreactivity
